# Test results published in US20240409638A1 (AVACTA LIFE SCIENCES, published 2024).
# Tests used:
# [1] = molecular target: T1, human serum albumin (HSA) (human, UniProt P02768 25-609); test: SPR (Biacore) kinetics: HSA immobilised on a CM5 chip, AFFIMER as analyte, pH 7.4
# T1 construct: The assays used bought HSA (Sigma #A37812 in the SPR work); also called HuSA
# [2] = molecular target: T1, human serum albumin (HSA); test: HSA binding ELISA: HSA coated, anti-cystatin A detection
# [3] = molecular target: T2, human PD-L1-Fc (R&D Systems) (human, UniProt Q9NZQ7 19-239); test: SPR (Biacore) kinetics: human PD-L1-Fc immobilised on a CM5 chip, AFFIMER as analyte
# T2 construct: Bought reagent; also called huPD-L1-Fc; huPD-L1; not shown: Fc part of the bought fusion
# [4] = molecular target: T1, human serum albumin (HSA); test: SPR (Biacore 8K): HSA amine-coupled on a CM5 chip, AFFIMER as analyte, pH 7.4, 1:1 Langmuir fit
# Experimental: (§1) For the HSA binding kinetic analysis, HSA (Sigma #A37812) was immobilized on a CM5 chip surface using amine coupling in 10 mM sodium acetate (pH 5.0) (Cytvia). […] The chip surface was regenerated with 3 mM NaOH for 20 seconds at a flow rate of 20 μl/min. The kinetic data was blank subtracted and fit to a 1:1 Langmuir binding model (BIAcore evaluation software; Cytiva).
# [5] = molecular target: T3, PD-L1 on cells (NCI-H441 cells; aAPC PD-L1/CHO-K1 cells, Promega) (human, UniProt Q9NZQ7 19-290); test: flow cytometry on PD-L1 expressing cells
# T3 construct: whole, on cells; also called human PD-L1-expressing CHO-K1 cells; H441 cells endogenously expressing PD-L1
# [6] = molecular target: T1, human serum albumin (HSA); test: HSA binding ELISA: HSA coated, bound AFFIMER detected with biotinylated anti-cystatin A antibody and streptavidin-HRP
# Experimental: Plates were washed and AFFIMER® polypeptides were detected using streptavidin-HRP for 30 min. After the last washing step, the TMB substrate was added for the development of the experiment and plates were read at 450 nm. The EC₅₀ was then calculated using the interpolated non-linear four-parameters standard curve.
# [7] = molecular target: T1, human serum albumin (HSA); test: SPR (Biacore 8K): HSA amine-coupled on a CM5 chip, AFFIMER as analyte, pH 6.0, 1:1 Langmuir fit
# Experimental: as §1
# T2 sequence (Q9NZQ7 19-239 limits assumed): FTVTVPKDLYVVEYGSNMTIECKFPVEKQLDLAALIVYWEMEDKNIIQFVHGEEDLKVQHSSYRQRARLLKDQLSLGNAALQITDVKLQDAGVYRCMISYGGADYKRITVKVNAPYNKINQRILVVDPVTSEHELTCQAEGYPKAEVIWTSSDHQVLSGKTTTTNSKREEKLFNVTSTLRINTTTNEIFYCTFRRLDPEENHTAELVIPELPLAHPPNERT
# T1 sequence (P02768 25-609): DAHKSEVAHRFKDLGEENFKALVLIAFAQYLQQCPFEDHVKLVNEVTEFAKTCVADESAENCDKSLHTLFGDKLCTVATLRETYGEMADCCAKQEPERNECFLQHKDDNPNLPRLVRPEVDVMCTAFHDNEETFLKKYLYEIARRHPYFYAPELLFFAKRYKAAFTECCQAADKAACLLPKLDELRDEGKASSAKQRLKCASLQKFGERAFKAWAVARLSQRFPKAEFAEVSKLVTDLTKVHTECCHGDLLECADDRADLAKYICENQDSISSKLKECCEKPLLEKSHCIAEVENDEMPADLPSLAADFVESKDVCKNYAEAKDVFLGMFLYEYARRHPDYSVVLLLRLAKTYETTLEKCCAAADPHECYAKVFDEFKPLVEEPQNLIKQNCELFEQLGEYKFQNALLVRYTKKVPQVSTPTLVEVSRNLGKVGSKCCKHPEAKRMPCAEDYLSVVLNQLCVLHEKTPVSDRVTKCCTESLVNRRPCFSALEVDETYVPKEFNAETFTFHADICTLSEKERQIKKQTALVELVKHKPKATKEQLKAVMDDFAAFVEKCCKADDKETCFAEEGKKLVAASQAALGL
# T3 sequence (Q9NZQ7 19-290): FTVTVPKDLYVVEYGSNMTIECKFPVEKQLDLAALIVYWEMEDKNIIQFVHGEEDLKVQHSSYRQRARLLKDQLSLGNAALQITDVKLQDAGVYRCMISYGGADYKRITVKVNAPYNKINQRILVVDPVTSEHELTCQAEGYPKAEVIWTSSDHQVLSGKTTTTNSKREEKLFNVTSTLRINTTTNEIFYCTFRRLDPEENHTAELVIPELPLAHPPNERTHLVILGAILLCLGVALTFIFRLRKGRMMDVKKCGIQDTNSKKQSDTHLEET
Binder,Kd [1] [nM],koff [1] [s⁻¹],kon [1] [M⁻¹ s⁻¹],EC50 [2] [nM],Kd [3] [nM],koff [3] [s⁻¹],kon [3] [M⁻¹ s⁻¹],Kd [4] [nM],koff [4] [s⁻¹],kon [4] [M⁻¹ s⁻¹],binding result [5],EC50 [6] [nM],Kd [7] [nM],koff [7] [s⁻¹],kon [7] [M⁻¹ s⁻¹]
"Clone 80 XT41 (designed binder, One Clone 80 and two HSA-41 units joined by flexible (G4S)6 linkers; Made in E. coli; No tag is stated for this construct) MIPGGLSEAKPATPEIQEIVDKVKPQLEEKTGETYGKLEAVQYKTQVVRRKHFPQWPGTNYYIKVRAGDNKYMHLKVFKSLDLQPREVFQEDLVLTGYQVDKNKDDELTGFGGGGSGGGGSGGGGSGGGGSGGGGSGGGGSMIPRGLSEAKPATPEIQEIVDKVKPQLEEKTNETYGKLEAVQYKTQVLANFFQRRWPGSTNYYIKVRAGDNKYMHLKVFNGPWKFRNTDRGADRVLTGYQVDKNKDDELTGFGGGGSGGGGSGGGGSGGGGSGGGGSGGGGSMIPRGLSEAKPATPEIQEIVDKVKPQLEEKTNETYGKLEAVQYKTQVLANFFQRRWPGSTNYYIKVRAGDNKYMHLKVFNGPWKFRNTDRGADRVLTGYQVDKNKDDELTGF",0.18,0.00189,1.05e+07,–,0.172,0.000212,1.24e+06,–,–,–,–,–,–,–,–
"Clone 80 XT40 (designed binder, HSA-41 sits in the middle position between two Clone 80 units, joined by rigid A(EAAAK)6 linkers; Made in E. coli; No tag is stated for this construct) MIPGGLSEAKPATPEIQEIVDKVKPQLEEKTGETYGKLEAVQYKTQVVRRKHFPQWPGTNYYIKVRAGDNKYMHLKVFKSLDLQPREVFQEDLVLTGYQVDKNKDDELTGFAEAAAKEAAAKEAAAKEAAAKEAAAKEAAAKMIPRGLSEAKPATPEIQEIVDKVKPQLEEKTNETYGKLEAVQYKTQVLANFFQRRWPGSTNYYIKVRAGDNKYMHLKVFNGPWKFRNTDRGADRVLTGYQVDKNKDDELTGFFAEAAAKEAAAKEAAAKEAAAKEAAAKEAAAKMIPGGLSEAKPATPEIQEIVDKVKPQLEEKTGETYGKLEAVQYKTQVVRRKHFPQWPGTNYYIKVRAGDNKYMHLKVFKSLDLQPREVFQEDLVLTGYQVDKNKDDELTGF",1.54,0.00273,1.77e+06,–,0.0668,9.33e-05,1.4e+06,–,–,–,–,–,–,–,–
DC XT45 (dimer in-line fusion XT control) (designed binder) MIPGGLSEAKPATPEIQEIVDKVKPQLEEKTGETYGKLEAVQYKTQVVGGGGGGGGGGTNYYIKVRAGDNKYMHLKVFKSLGGGGGGGGGEDLVLTGYQVDKNKDDELTGFAEAAAKEAAAKEAAAKEAAAKEAAAKEAAAKMIPRGLSEAKPATPEIQEIVDKVKPQLEEKTNETYGKLEAVQYKTQVLANFFQRRWPGSTNYYIKVRAGDNKYMHLKVFNGPWKFRNTDRGADRVLTGYQVDKNKDDELTGF,–,–,–,–,–,–,–,1.08,0.00272,2.52e+06,no binding,0.02,7.36,0.00276,375000

# More lines, now with the values ahead:
Kd [1] [nM],koff [1] [s⁻¹],kon [1] [M⁻¹ s⁻¹],EC50 [2] [nM],Kd [3] [nM],koff [3] [s⁻¹],kon [3] [M⁻¹ s⁻¹],Kd [4] [nM],koff [4] [s⁻¹],kon [4] [M⁻¹ s⁻¹],binding result [5],EC50 [6] [nM],Kd [7] [nM],koff [7] [s⁻¹],kon [7] [M⁻¹ s⁻¹],Binder
1.07,0.00436,4.06e+06,0.85,–,–,–,–,–,–,–,–,–,–,–,"HSA-41 (anti-serum albumin AFFIMER® polypeptide, monomer) (designed binder, No tags are stated; also called HSA-41 monomer; XT polypeptide) MIPRGLSEAKPATPEIQEIVDKVKPQLEEKTNETYGKLEAVQYKTQVLANFFQRRWPGSTNYYIKVRAGDNKYMHLKVFNGPWKFRNTDRGADRVLTGYQVDKNKDDELTGF"
–,–,–,–,–,–,–,1.45,0.00259,1.79e+06,no binding,0.04,1.28,0.00205,1.61e+06,DC XT46 (trimer in-line fusion XT control) (designed binder) MIPGGLSEAKPATPEIQEIVDKVKPQLEEKTGETYGKLEAVQYKTQVVGGGGGGGGGGTNYYIKVRAGDNKYMHLKVFKSLGGGGGGGGGEDLVLTGYQVDKNKDDELTGFAEAAAKEAAAKEAAAKEAAAKEAAAKEAAAKMIPGGLSEAKPATPEIQEIVDKVKPQLEEKTGETYGKLEAVQYKTQVVGGGGGGGGGGTNYYIKVRAGDNKYMHLKVFKSLGGGGGGGGGEDLVLTGYQVDKNKDDELTGFAEAAAKEAAAKEAAAKEAAAKEAAAKEAAAKMIPRGLSEAKPATPEIQEIVDKVKPQLEEKTNETYGKLEAVQYKTQVLANFFQRRWPGSTNYYIKVRAGDNKYMHLKVFNGPWKFRNTDRGADRVLTGYQVDKNKDDELTGF
